Data on 14 sequences can be found in the Immune Epitope Database (IEDB).

The target in experiment [1] is HLA-A*03:01. The experiment can be described thus: IEDB peptide-MHC binding, purified MHC/competitive/fluorescence; ≥ and ≤ were set here for values at or beyond the usual limits of such assays.
Experiment [2] concerns the target HLA-B*15:01. Described as above.
In experiment [3] the target is HLA-A*11:01. The experiment is described as above.
For a further experiment, the target named is HLA-A*24:02. Described as above.
Experiment [4] deals with HLA-A*02:01. Described as above.
In experiment [5] the target is HLA-A*03:01. Description: IEDB peptide-MHC binding, purified MHC/direct/fluorescence; filed as Kd, often an IC50 or EC50 that approximates it; ≥ and ≤ were set here for values at or beyond the usual limits of such assays. To be noted: source organism: Zaire ebolavirus.
Experiment [6] addresses HLA-A*02:03. Described as above.
The target in experiment [7] is HLA-B*15:01. The description is as above. To be noted: source organism: Reston ebolavirus - Reston.
The target of another experiment is HLA-A*02:19. The description is as above.
For another experiment, the target named is HLA-A*02:11. Described as above.
The target in a further experiment is HLA-A*02:16. The experiment is described as above.
Another experiment has as its target HLA-A*02:12. The experiment is described as above.
The target in another experiment is HLA-A*68:02. The description is as above. To be noted: source organism: Zaire ebolavirus.
For the next experiment, the target named is HLA-B*27:03. The experiment can be described thus: IEDB peptide-MHC binding, purified MHC/competitive/fluorescence; filed as Kd, often an IC50 or EC50 that approximates it; ≥ and ≤ were set here for values at or beyond the usual limits of such assays.
The target in the next experiment is HLA-A*69:01. Described as above.
The target in experiment [8] is HLA-B*57:01. Described as above.
Another experiment deals with HLA-B*39:01. The description is as above.
The next experiment concerns the target HLA-B*18:01. The experiment is described as above.
Experiment [9] addresses HLA-A*02:01. Described as above.
The target in experiment [10] is HLA-B*57:01. Description: IEDB peptide-MHC binding, purified MHC/direct/fluorescence; filed as Kd, often an IC50 or EC50 that approximates it; ≥ and ≤ were set here for values at or beyond the usual limits of such assays. To be noted: source organism: Camelpox virus M-96.
Another experiment has as its target HLA-B*58:01. The experiment is described as above. To be noted: source organism: Camelpox virus M-96.
The target in the next experiment is HLA-B*15:03. The experiment can be described thus: IEDB peptide-MHC binding, purified MHC/competitive/radioactivity; filed as Kd, often an IC50 or EC50 that approximates it; ≥ and ≤ were set here for values at or beyond the usual limits of such assays. To be noted: source organism: Vaccinia virus WR.
In experiment [11] the target is HLA-B*15:01. The description is as above. To be noted: source organism: Vaccinia virus WR.
The next experiment deals with HLA-B*08:01. The experiment is described as above. To be noted: source organism: Vaccinia virus WR.
Another experiment concerns the target HLA-A*32:01. The description is as above. To be noted: source organism: Vaccinia virus WR.
The next experiment addresses HLA-A*30:01. The experiment is described as above. To be noted: source organism: Vaccinia virus WR.
The target of another experiment is HLA-B*40:01. The experiment can be described thus: IEDB peptide-MHC binding, purified MHC/direct/fluorescence; filed as Kd, often an IC50 or EC50 that approximates it; ≥ and ≤ were set here for values at or beyond the usual limits of such assays. To be noted: source organism: Sudan ebolavirus - Maleo (1979).
Another experiment addresses HLA-A*24:03. The experiment is described as above. To be noted: source organism: Zaire ebolavirus.
The next experiment deals with HLA-B*45:06. Description: IEDB peptide-MHC binding, purified MHC/competitive/fluorescence; filed as Kd, often an IC50 or EC50 that approximates it; ≥ and ≤ were set here for values at or beyond the usual limits of such assays. To be noted: source organism: Zaire ebolavirus.
In experiment [12] the target is HLA-B*15:01. The description is as above. To be noted: source organism: Zaire ebolavirus.
Another experiment concerns the target HLA-B*83:01. Described as above. To be noted: source organism: Zaire ebolavirus.
For another experiment, the target named is HLA-A*26:01. Described as above.
Another experiment deals with HLA-B*51:01. Described as above.
The target of another experiment is HLA-B*46:01. The description is as above.
Another experiment addresses HLA-B*15:42. The description is as above. To be noted: source organism: Zaire ebolavirus.
Experiment [13] concerns the target HLA-A*11:01. Description: IEDB peptide-MHC binding, purified MHC/direct/fluorescence; filed as Kd, often an IC50 or EC50 that approximates it; ≥ and ≤ were set here for values at or beyond the usual limits of such assays. To be noted: source organism: Bacillus cereus G9842.
Another experiment concerns the target HLA-B*15:17. The experiment can be described thus: IEDB peptide-MHC binding, purified MHC/competitive/fluorescence; filed as Kd, often an IC50 or EC50 that approximates it; ≥ and ≤ were set here for values at or beyond the usual limits of such assays. To be noted: source organism: Bacillus anthracis str. A0488.
The target of another experiment is HLA-B*15:09. The experiment can be described thus: IEDB peptide-MHC binding, purified MHC/direct/fluorescence; filed as Kd, often an IC50 or EC50 that approximates it; ≥ and ≤ were set here for values at or beyond the usual limits of such assays. To be noted: source organism: Salmonella enterica subsp. enterica serovar Typhimurium str. LT2.
Experiment [14] has as its target HLA-A*02:03. The experiment can be described thus: IEDB peptide-MHC binding, purified MHC/competitive/fluorescence; filed as Kd, often an IC50 or EC50 that approximates it; ≥ and ≤ were set here for values at or beyond the usual limits of such assays. To be noted: source organism: Homo sapiens.
The mark [15] stands for this setting: source organism: Sudan ebolavirus.
Where [16] appears, read: source organism: Zaire ebolavirus.
[17] abbreviates: source organism: Vaccinia virus.
[18] abbreviates: source organism: Bacillus cereus G9842.
[19] abbreviates: source organism: Bacillus anthracis str. A0488.

A word on the IC50: it is the concentration needed to halve the response being measured. Low readings indicate higher potency, high ones lower potency. As for GFRSGVPPK, the IC50 in the experiment with HLA-A*03:01 [1] (setting [15]) is 3.79 µM; with HLA-B*15:01 [2] (setting [15]) it was at least 92.3 µM; with HLA-A*11:01 [3] (setting [15]), 3.21 µM.
Regarding GLFPQLSAI, the IC50 is 10.3 µM with HLA-B*15:01 [2] (setting [16]), 8.03 µM with HLA-A*24:02 (setting [16]) and 0.431 µM in the experiment with HLA-A*02:01 [4] (setting [16]).
Usually Kd stands for the concentration at which binding is half-saturated. For HLPGFGTAF, the Kd was at least 20 µM in the experiment with HLA-A*03:01 [5]; at least 20 µM in the experiment with HLA-A*02:03 [6] (setting [16]); 0.072 µM in the experiment with HLA-B*15:01 [7]; at least 20 µM with HLA-A*02:19 (setting [16]); at least 20 µM with HLA-A*02:11 (setting [16]); at least 20 µM with HLA-A*02:16 (setting [16]). The Kd with HLA-A*02:12 (setting [16]), with HLA-A*68:02, with HLA-B*27:03 (setting [16]), with HLA-A*69:01 (setting [16]), with HLA-B*57:01 [8] (setting [16]) and with HLA-B*39:01 (setting [16]) was at least 20 µM in each case. Moreover, the Kd with HLA-B*18:01 (setting [16]) and with HLA-A*02:01 [9] (setting [16]) was at least 20 µM each time.
For KINQIIHDF, the IC50 with HLA-B*15:01 [2] (setting [15]) is 27.2 µM; in the experiment with HLA-A*24:02 (setting [15]) it was 0.969 µM; in the experiment with HLA-A*02:01 [4] (setting [15]) it was at least 78.6 µM.
With KTINALVYF, the Kd in the experiment with HLA-B*57:01 [10] was determined as 0.784 µM; with HLA-B*58:01 it was 0.0453 µM; with HLA-B*15:03, 0.0227 µM; with HLA-B*15:01 [11], 0.000366 µM; with HLA-B*08:01, 17.1 µM; with HLA-A*32:01, 0.00873 µM. The Kd with HLA-A*30:01 stood at 0.131 µM.
LEARVNLSV: the Kd with HLA-A*03:01 [5] was at least 20 µM; with HLA-A*02:03 [6] (setting [16]), at least 20 µM; in the experiment with HLA-B*40:01, 2.34 µM; with HLA-A*02:19 (setting [16]) it was at least 20 µM; with HLA-A*02:12 (setting [16]), at least 20 µM; with HLA-A*68:02 it was at least 20 µM. Also, the Kd with HLA-A*24:03 is at least 20 µM; with HLA-B*27:03 (setting [16]), at least 20 µM; with HLA-B*45:06, at least 5 µM; with HLA-B*15:01 [12], at least 20 µM; with HLA-A*69:01 (setting [16]), at least 20 µM; with HLA-B*57:01 [8] (setting [16]), at least 20 µM. Moreover, the equilibrium dissociation constant (Kd) with HLA-B*83:01 was at least 5 µM; with HLA-A*26:01 (setting [16]), at least 20 µM; in the experiment with HLA-B*51:01 (setting [16]), at least 20 µM; in the experiment with HLA-B*39:01 (setting [16]), at least 20 µM; with HLA-B*46:01 (setting [16]), at least 20 µM; with HLA-B*18:01 (setting [16]), at least 20 µM. Further, the Kd in the experiment with HLA-B*15:42 is at least 5 µM; in the experiment with HLA-A*02:01 [9] (setting [16]) it was at least 20 µM.
On to LFLDIECHF, for which the equilibrium dissociation constant (Kd) is 0.0473 µM with HLA-B*15:03; 0.547 µM in the experiment with HLA-B*15:01 [11]; 1.12 µM in the experiment with HLA-B*08:01; 3.44 µM with HLA-A*32:01; 0.019 µM with HLA-A*30:01.
On to LLFGIKCIK, for which the IC50 with HLA-A*03:01 [1] (setting [17]) is 0.77 µM; with HLA-B*15:01 [2] (setting [17]) it was at least 229 µM; with HLA-A*11:01 [3] (setting [17]), 0.734 µM; in the experiment with HLA-A*02:01 [4] (setting [17]), 0.914 µM.
In the case of MFKNFPFFK, the Kd is at least 20 µM with HLA-A*02:03 [6] (setting [18]); at least 20 µM with HLA-A*02:19 (setting [18]); at least 20 µM with HLA-A*02:11 (setting [18]); at least 20 µM with HLA-A*02:16 (setting [18]); at least 20 µM in the experiment with HLA-A*02:12 (setting [18]); at most 0.001 µM in the experiment with HLA-A*11:01 [13]. Moreover, the Kd in the experiment with HLA-B*27:03 (setting [19]), with HLA-B*57:01 [8] (setting [19]), with HLA-A*26:01 (setting [19]), in the experiment with HLA-B*51:01 (setting [19]), in the experiment with HLA-B*39:01 (setting [19]) and with HLA-B*46:01 (setting [19]) was at least 20 µM throughout. Moreover, the Kd in the experiment with HLA-B*15:17, in the experiment with HLA-B*18:01 (setting [19]) and with HLA-A*02:01 [9] (setting [19]) was at least 20 µM in each case.
For the sequence QQFYWPVMN, the figures for the IC50 with HLA-B*15:01 [2] (setting [16]) and in the experiment with HLA-A*02:01 [4] (setting [16]) were 34 µM and 8 µM, respectively.
In the case of SQIITLTAF, the Kd was 0.000791 µM with HLA-B*15:03; 0.00101 µM with HLA-B*15:01 [11]; at least 40.6 µM with HLA-B*08:01; 1.2 µM with HLA-A*32:01; 16.4 µM with HLA-A*30:01.
In the case of SRAGISVVL, the Kd with HLA-B*15:09 is 0.207 µM; with HLA-B*39:01 (source organism: Serratia marcescens), 0.0047 µM.
Regarding WQSVGHMMV, the results for the IC50 with HLA-B*15:01 [2] (setting [16]) and with HLA-A*02:01 [4] (setting [16]) were 4.76 µM and 1.54 µM, respectively.
Take YQGSYGFRL: the results for the Kd with HLA-A*02:03 [14], in the experiment with HLA-A*69:01 (source organism: Homo sapiens) and with HLA-A*02:01 [9] (source organism: Homo sapiens) were 2.14 µM, at least 20 µM and 0.013 µM, respectively.
